± gives the uncertainty stated by the source.
assay: amyloid nucleation score (Sup35N fusion, yeast selection) (log enrichment); library NNK3; higher = more nucleation; inactive = no reads after selection
Outline: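 Three technical output replicates were used for random libraries. Psi-negative yeast expressing peptides of 20 random codons fused to Sup35N were induced with 100 μM copper sulfate for 24 hours and grown 7 days at 30°C on medium lacking adenine and uracil, and input and output plasmid inserts were Illumina-sequenced, excluding sequences with under 100 input reads. The nucleation score is the DiMSum log enrichment of output over input reads, centred on the mode score of non-aggregating sequences.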

Substance	amyloid nucleation score
ICYPLFFCNAEWRFEEPCVL	2.57 ± 0.075
VCTTMCDTRWVTISYF	inactive
TICQADSRSSFQGLDCRRVR	-1.01 ± 2.5
ISFNFHSSSTGRA	1.38 ± 0.11
CDMSCMTKSCPPSYPN	-0.395 ± 0.8
KWPQLIWSGTYFKPFWSING	inactive
VQSSPVYMFMTNNSF	1.8 ± 0.056
GSLVRV	inactive
LSRDGVFVPPTSRSYHPRLK	inactive
MMELQVAQLHTEGDRLKSRR	-0.787 ± 2.4
MRYINEKCVT	inactive
RAYFGCFQGFILLFSYLMC	inactive
SVDDFR	inactive
VSACLNSGGQHSQRHANMAV	inactive
CFLSGWTLTVSVLLVDYRKL	inactive
KRPHV	inactive
MTAGEIDRLLYVS	inactive
NCCQFPVDAS	inactive
SHLFREIDITWSCSLVISCN	inactive
IYSTWET	-0.698 ± 1.5
WYVCRSGVCGHALIALATRR	-0.483 ± 0.61
HTESTGLSTPWVHL	inactive
KFANYSPRDGTCGTDAHVSD	inactive
TIAHYTVP	inactive

Substance	amyloid nucleation score
GGYSQKLYILYDYLFENYYS	inactive
QDNVKVVGAVGFYDILNGVE	inactive
KLFGTKIVIVDVDSLCYMVL	inactive
LIFLTMVSLLFGDQRRSGVQ	0.221 ± 0.54
VDISFVSAWKDLLLGRLVCD	inactive
NARGVKSDEILN	inactive
KLLLYMMYNRYLPM	0.528 ± 0.32
ALGIYRTIYCVIVFG	inactive
VFQRR	inactive
RIPKDEYTNPGRA	inactive
MEVKNSRLDSVAKYQSISFL	inactive
SMFCMVSFMMW	-0.071 ± 0.22
FHMFYRFSGDNGPKKFH	0.607 ± 0.26
VCCCHLCL	0.17 ± 0.56
TCNNMYCWV	2.3 ± 0.075
DGMTMFLSYN	-0.208 ± 1.1
GIVSYCICIFGNFQK	2.64 ± 0.064
LFVLGPDRLDCAQCKLLRDR	inactive
IVRLFLDVSSVTGHIWARCL	inactive
NLGKTLNTLYLVFTFRDVF	inactive
SYNVFPIAEDKNHWNTFC	inactive
GHNVQGNRLMITYDLNIVGS	inactive
GHVAHLINILYVNSTIPQTG	inactive
IATCTRFIDYVYRDVSSGPC	0.725 ± 0.11

Substance	amyloid nucleation score
SENICLYT	inactive
IIPVTSRDYSRKPYPTLERV	inactive
IKQGYRAHLWWIVVNRLMFD	inactive
FRDVPGLLCR	inactive
SNEEYGGSQKETCTIGSSLG	inactive
ILCQIDAKDPKPLMTRGLRL	inactive
TNVRIYCSWGVDAG	inactive
GVVVIPS	0.933 ± 0.16
VNFACSIGGRGLFGFGIKVS	inactive
IFSNLGVVNLCRACFKYSNI	2.92 ± 0.059
YVNVYGSQMVYSKSQGHFPD	inactive
ADLGATAAINQKAWVGDQ	inactive
VYFGSWTWSVNSKHLPPALV	inactive
WDDEFVWSGINN	inactive
NDHSEGTCSIRERQTSRWML	inactive
PLGLAILFSSPSTFLYFNFD	inactive
LQKCNWRRMVGRNQCWGKAR	0.89 ± 0.19
LDMSLACPRG	-0.051 ± 0.77
DLHMIATMGECMHCEMHL	inactive
RIGAPKRRSRTWKNPAWTGQ	inactive
NMIEVI	inactive
VVSSRLDAALDCWVREDCGV	inactive
GRYCWCSLLAKYEMSLPRAR	-0.405 ± 0.8
DAFRSSYWIICMTEAHLYKF	inactive

Substance	amyloid nucleation score
WCFYKSRLFVVQVVVLYNRF	inactive
SYNKEKVSKTFVGCPTRSMV	inactive
FVCLT	1.32 ± 0.13
DSGLFKYSYGLWEKLLFYRM	inactive
KREPKS	inactive
RTWIRAYVSMQFRMCQDTDV	inactive
ANVWPISPLSGGVRLWMFGR	inactive
ELCEKMFRTIFCFKCRVCMN	inactive
SYYSRIRLLRRVRVSYYYVR	0.801 ± 0.22
GKWKIKQ	inactive
WFFETQLSLWWVNGQDLAEV	inactive
LRSFGYRRQ	inactive
QSSCGIMQPYRQWMPYSTYG	inactive
RSYGR	inactive
ARSDGA	inactive
EHCSGNFRLNLSCDEVHIWM	2.99 ± 0.063
ANNPLLG	inactive
EEVSVA	inactive
ALIHFGIEVKRYICWMQNLV	inactive
RMPAFLCGYC	inactive
CWAYVMRT	inactive
FSCPDLGRGYVIS	inactive
YSTVYIGSQVRVDDTLSMSA	inactive
SGSWHKH	inactive

Substance	amyloid nucleation score
GCKTREVLLYWLIMRPGGYS	inactive
SAVSTRW	inactive
DMCEGYVNYCRMHRAMRHDD	inactive
GVSVMSGQAMYVRKRSALEM	inactive
NSLCSLVLTLIWWIKCPCDV	inactive
VWRRKKAGAHYREDVSNYPQ	inactive
HTILENFSSLVVMRDGRRNG	-0.275 ± 0.52
FCNCNMFYDLCLCAHGMPSA	2.99 ± 0.067
VMMFYNILHSQIDKLFKLLA	inactive
VLKKGGVFVWFAWECNTCSD	inactive
RRVFHQAFSGWSDLCIQRSG	inactive
CYRCVCFLLCGFVQSDCYDD	inactive
WAYLWLSKNSYGR	inactive
ISCGGLNQ	inactive
LATLLTMWRGSLRYNPLKRL	-0.354 ± 0.48
PLLLHVST	inactive
NSLPCLGYGMFM	inactive
YRNSICHNREKAWHGSNKNR	inactive
EFWQFDRYVLSNTVSLFSGC	inactive
PWCLNWVITDDCRFYCGLRV	inactive
RCGKPVGRTYGLGISIEKAR	inactive
SAIFDGEQERSRDMLL	inactive
LNCGSAFRDVFTVMALNTRV	-0.14 ± 0.88
ANDVISYTFFLSEERG	inactive
